Test results taken from PMC4455283, “Crystal structure of TRIM20 C-terminal coiled-coil/B30.2 fragment: implications for the recognition of higher order oligomers” (Scientific Reports, 2015).

How the values were obtained:
[1] = target: the molecule itself; assay: AUC; sedimentation velocity analytical ultracentrifugation at 4 °C
pro-interleukin-1β = target: T1, pro-interleukin-1β (UniProt P01584 1-269); assay: SPR; TRIM20Δ413 and pro-IL-1β; heterogeneous ligand model; apparent dissociation constants; immobilised partner not told in the text shown; conditions: both partners purified
T1 construct: pro-interleukin-1β (uncleaved precursor of IL-1β); Printed mass 31.9 kDa; The FLAG tag is named for the co-immunoprecipitation; also called pro-IL-1β; FLAG-tagged pro-IL-1β; source: purified

B1: TRIM20Δ413 (TRIM20 coiled-coil/B30.2 fragment) (domain or fragment, human, UniProt O15553 414-781, looked up)
chain: EVALEHKKKIQKQLEHLKKLRKSGEEQRSYGEEKAVSFLKQTEALKQRVQRKLEQVYYFLEQQEHFFVASLEDVGQMVGQIRKAYDTRVSQDIALLDALIGELEAKECQSEWELLQDIGDILHRAKTVPVPEKWTTPQEIKQKIQLLHQKSEFVEKSTKYFSETLRSEMEMFNVPELIGAQAHAVNVILDAETAYPNLIFSDDLKSVRLGNKWERLPDGPQRFDSCIIVLGSPSFLSGRRYWEVEVGDKTAWILGACKTSISRKGNMTLSPENGYWVVIMMKENEYQASSVPPTRLLIKEPPKRVGIFVDYRVGSISFYNVTARSHIYTFASCSFSGPLQPIFSPGTRDGGKNTAPLTICPVGGQGPD
notes: TRIM20 (pyrin, marenostrin), human, UniProt O15553; construct starting with E414, comprising the CHS (coiled-coil, E414-N586) and B30.2 (E589-G776) domains; Calculated monomer mass printed as 42 737 Da (85.7 kDa dimer); also called CHS-B30.2; TRIM20 C-terminal coiled-coil/B30.2 fragment; source: purified
- stoichiometry N [1]: 2
- apparent KD, heterogeneous ligand model, first constant (pro-interleukin-1β): 0.7 µM
- apparent KD, heterogeneous ligand model, second constant (pro-interleukin-1β): 13.7 µM
